This passage reports protein stability index results from the supplement of paper PMC10567573.

B1: ZNF232 (parent)
chain: HSGEKPFICKECGKAYGWCSELIR
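Note: lentivirally expressed fusions sorted by FACS into six bins by GFP to DsRed ratio, PSI derived from sequencing read proportions per bin multiplied by bin number.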

In the data set the parent is B1. In words: protein stability index of a GFP-peptide fusion (GPS, HEK-293T) (PSI 1-6); higher = more stable. The following applies: c terminus: a fixed tail appended.
With HSGEKPFICKDCGKAYGWCSELIR [E11D], the protein stability index turned out to be 1.88.
Next, HSGEKPFICKICGKAYGWCSELIR [E11I]: 2.27.
The result for HSGEKPFICKLCGKAYGWCSELIR [E11L] reads 1.7.
For HSGEKPFICKFCGKAYGWCSELIR [E11F], the protein stability index was found to be 1.77.
Next, HSGEKPFICKHCGKAYGWCSELIR [E11H]: 2.24; HSGEKPFICKRCGKAYGWCSELIR [E11R]: 2.65.
On to HSGEKPFICKQCGKAYGWCSELIR [E11Q], for which the protein stability index is 1.52.
The result for HSGEKPFICKCCGKAYGWCSELIR [E11C] reads 2.3.
The result for HSGEKPFICKPCGKAYGWCSELIR [E11P] reads 1.58.
Next, HSGEKPFICKGCGKAYGWCSELIR [E11G]: 2.19; HSGEKPFICKKCGKAYGWCSELIR [E11K]: 1.62; HSGEKPFICKACGKAYGWCSELIR [E11A]: 2.22.
As to HSGEKPFICKMCGKAYGWCSELIR [E11M], the protein stability index stood at 2.02.
Next, HSGEKPFICKNCGKAYGWCSELIR [E11N]: 1.61; HSGEKWFICKECGKAYGWCSELIR [P6W]: 1.69.
The result for HSGEKTFICKECGKAYGWCSELIR [P6T] reads 2.3.
Regarding HSGEKYFICKECGKAYGWCSELIR [P6Y], the protein stability index is 1.74.
HSGEKVFICKECGKAYGWCSELIR [P6V]: the protein stability index was found to be 2.12.
The result for HSGEKPFTCKECGKAYGWCSELIR [I8T] reads 1.23; that for HSGEKPFNCKECGKAYGWCSELIR [I8N], 2.58.
Consider HSGEKPFCCKECGKAYGWCSELIR [I8C], for which the protein stability index was 2.46.
Next, HSGEKPFYCKECGKAYGWCSELIR [I8Y]: 1.74.
Next, HSGEKPFVCKECGKAYGWCSELIR [I8V]: 1.58.
As for HSGEKPFLCKECGKAYGWCSELIR [I8L], the protein stability index worked out at 1.75.
Next, HSGEKPFACKECGKAYGWCSELIR [I8A]: 1.7; HSGEKPFPCKECGKAYGWCSELIR [I8P]: 1.81; HSGEKPFECKECGKAYGWCSELIR [I8E]: 2.22.
For the variant HSGEKPFMCKECGKAYGWCSELIR [I8M], the protein stability index was found to be 2.38.
As to HSGEKPFKCKECGKAYGWCSELIR [I8K], the protein stability index was 2.09.
With HSGEKPFDCKECGKAYGWCSELIR [I8D], the protein stability index stood at 2.07.
With HSGEKPFQCKECGKAYGWCSELIR [I8Q], the protein stability index worked out at 2.02.
As for HSGEKPFFCKECGKAYGWCSELIR [I8F], the protein stability index came out at 1.51.
The result for HSGEKPFGCKECGKAYGWCSELIR [I8G] reads 2.01; that for HSGEKPFWCKECGKAYGWCSELIR [I8W], 1.69; that for HSGEKPFSCKECGKAYGWCSELIR [I8S], 2.28.
With HSGEKPFRCKECGKAYGWCSELIR [I8R], the protein stability index is 1.44.
The result for HSGEKPFHCKECGKAYGWCSELIR [I8H] reads 1.79; that for HSGEKPAICKECGKAYGWCSELIR [F7A], 2.22; that for HSGEKPQICKECGKAYGWCSELIR [F7Q], 2.08.
Consider HSGEKPCICKECGKAYGWCSELIR [F7C], for which the protein stability index was determined as 1.73.
For the variant HSGEKPWICKECGKAYGWCSELIR [F7W], the protein stability index is 2.09.
Consider HSGEKPHICKECGKAYGWCSELIR [F7H], for which the protein stability index was 2.73.
On to HSGEKPLICKECGKAYGWCSELIR [F7L], for which the protein stability index is 2.05.
Next, HSGEKPTICKECGKAYGWCSELIR [F7T]: 2; HSGEKPIICKECGKAYGWCSELIR [F7I]: 2.56.
Next, HSGEKPNICKECGKAYGWCSELIR [F7N]: 2.24; HSGEKPEICKECGKAYGWCSELIR [F7E]: 2.7.
Next, HSGEKPGICKECGKAYGWCSELIR [F7G]: 2.52; HSGEKPPICKECGKAYGWCSELIR [F7P]: 2.11; HSGEKPDICKECGKAYGWCSELIR [F7D]: 2.29.
Take HSGEKPMICKECGKAYGWCSELIR [F7M]: the protein stability index came out at 2.1.
The result for HSGEKPYICKECGKAYGWCSELIR [F7Y] reads 2.52; that for HSGEKPKICKECGKAYGWCSELIR [F7K], 2.54; that for HSGEKPVICKECGKAYGWCSELIR [F7V], 1.89.
For the variant HSGEKPSICKECGKAYGWCSELIR [F7S], the protein stability index came out at 2.79.
The result for HSGEKPRICKECGKAYGWCSELIR [F7R] reads 2.12; that for HSGEKPFISKECGKAYGWCSELIR [C9S], 1.92.
Consider HSGEKPFIMKECGKAYGWCSELIR [C9M], for which the protein stability index was 2.6.
In the case of HSGEKPFIWKECGKAYGWCSELIR [C9W], the protein stability index amounted to 2.43.
The result for HSGEKPFIKKECGKAYGWCSELIR [C9K] reads 2.09; that for HSGEKPFIDKECGKAYGWCSELIR [C9D], 2.71; that for HSGEKPFIHKECGKAYGWCSELIR [C9H], 3.06.
Next, HSGEKPFIYKECGKAYGWCSELIR [C9Y]: 2.68; HSGEKPFIRKECGKAYGWCSELIR [C9R]: 2.32.
On to HSGEKPFIQKECGKAYGWCSELIR [C9Q], for which the protein stability index was 2.48.
Next, HSGEKPFIAKECGKAYGWCSELIR [C9A]: 1.94; HSGEKPFIFKECGKAYGWCSELIR [C9F]: 2.78.
As for HSGEKPFIIKECGKAYGWCSELIR [C9I], the protein stability index was found to be 2.54.
For the variant HSGEKPFINKECGKAYGWCSELIR [C9N], the protein stability index was 2.09.
Next, HSGEKPFITKECGKAYGWCSELIR [C9T]: 2.34; HSGEKPFIVKECGKAYGWCSELIR [C9V]: 2.33; HSGEKPFILKECGKAYGWCSELIR [C9L]: 2.25.
As for HSGEKPFIGKECGKAYGWCSELIR [C9G], the protein stability index worked out at 1.97.
Next, HSGEKPFIEKECGKAYGWCSELIR [C9E]: 2.3; HSGEKPFIPKECGKAYGWCSELIR [C9P]: 2.23; HSGEKPFICYECGKAYGWCSELIR [K10Y]: 1.99.
For HSGEKPFICVECGKAYGWCSELIR [K10V], the protein stability index is 1.82.
On to HSGEKPFICSECGKAYGWCSELIR [K10S], for which the protein stability index turned out to be 2.09.
Take HSGEKPFICGECGKAYGWCSELIR [K10G]: the protein stability index came to 1.96.
Next, HSGEKPFICEECGKAYGWCSELIR [K10E]: 2.33; HSGEKPFICAECGKAYGWCSELIR [K10A]: 1.68; HSGEKPFICDECGKAYGWCSELIR [K10D]: 1.66.
The result for HSGEKPFICWECGKAYGWCSELIR [K10W] reads 1.84; that for HSGEKPFICMECGKAYGWCSELIR [K10M], 1.96; that for HSGEKPFICHECGKAYGWCSELIR [K10H], 1.75.
The result for HSGEKPFICIECGKAYGWCSELIR [K10I] reads 2.01; that for HSGEKPFICLECGKAYGWCSELIR [K10L], 1.92; that for HSGEKPFICPECGKAYGWCSELIR [K10P], 2.07.
Consider HSGEKPFICNECGKAYGWCSELIR [K10N], for which the protein stability index stood at 1.82.
With HSGEKPFICCECGKAYGWCSELIR [K10C], the protein stability index is 1.7.
The result for HSGEKPFICFECGKAYGWCSELIR [K10F] reads 1.9; that for HSGEKPFICQECGKAYGWCSELIR [K10Q], 2.01.
Next, HSGEKPFICRECGKAYGWCSELIR [K10R]: 1.76; HSGEKPFICTECGKAYGWCSELIR [K10T]: 1.66.
